Results reported in patent US20250051443A1 (NATIONAL RESEARCH COUNCIL OF CANADA, published 2025).

What was measured:
human CD3 [1] = molecular target: T1, human CD3 (human, UniProt P07766 23-207; P09693 23-182; P04234 22-171); assay: cell-based or functional assay
human CD3 [2] = molecular target: T1, human CD3; assay: cell-based or functional assay; remark: listed apart in the source
human CD3 [3] = molecular target: T1, human CD3; assay: flow cytometry, hybridoma supernatant on CD3+ Jurkat cells
Procedure, shortened: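 Hybridoma supernatants stained onto CD3+ Jurkat T-cells and analysed by flow cytometry; specific binding taken as mean fluorescence intensity increase over CD3-negative J.RT3-T3.5 cells. Mouse IgG and anti-GFP supernatant served as negative controls, AF488-labelled OKT3 as positive control.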

human CD3 [4] = molecular target: T1, human CD3; assay: apparent KD (KDapp), flow cytometry titration on Jurkat cells
Procedure, shortened: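 Jurkat cells incubated 2 h on ice with 1/3 serial dilutions of purified mouse mAbs from 300 nM, then FITC anti-mouse Fc F(ab′)2 for 1 h. Binding read by flow cytometry on 2,000 viable single cells, with propidium iodide exclusion.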

human CD3 [5] = molecular target: T1, human CD3; assay: flow competition on Jurkat, 100 nM unlabeled mAb; competitor AF488-SK7 1.5 nM
Procedure, shortened: (§1)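 Jurkat cells incubated with a fixed concentration of AF488-labeled anti-CD3 mAb plus 100 nM unlabeled mAb, with competition read by flow cytometry as impaired labeled-mAb binding. In-house AF488-OKT3 mIgG2b was desalted and checked for integrity by UPLC-SEC.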

human CD3 [6] = molecular target: T1, human CD3; assay: flow competition on Jurkat, 100 nM unlabeled mAb; competitor AF488-UCHT1 5 nM
Procedure, shortened: as §1

human CD3 [7] = molecular target: T1, human CD3; assay: apparent KD (KDapp), flow cytometry titration on purified primary human T cells
Procedure, shortened: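 Freshly isolated human T cells from PBMCs (negative pan-T selection), 1×10⁵ per test, stained 2 h at 4 °C with eight-point mAb dilutions from 300 or 100 nM, then APC anti-mouse IgG secondary 30 min. Background-subtracted flow MFI fitted by one-site specific binding with Hill slope for KDapp.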

human CD3 [8] = molecular target: T1, human CD3; assay: flow competition on Jurkat, 100 nM unlabeled mAb; competitor AF488-SP34.2 20 nM
Procedure, shortened: as §1

human CD3 [9] = molecular target: T1, human CD3; assay: flow competition on Jurkat, 100 nM unlabeled mAb; competitor AF488-OKT-3 mIgG2b 1.5 nM
Procedure, shortened: as §1

Binder	% max ref. OKT3 (dTomato activation) (human CD3 [1]) [%]	EC50 of dTomato induction (CD69 promoter), Jurkat-CD69-dTomato cells, 24 h (human CD3 [1]) [µg/mL]	IC50, indirect ADC surrogate growth inhibition (anti-mouse-DM1) on Jurkat cells (human CD3 [2]) [nM]	Span, indirect ADC surrogate growth inhibition on Jurkat cells (human CD3 [2]) [%]	MFI (human CD3 [3]) [MFI]	Kd (human CD3 [4]) [nM]	% residual fluorescence of labeled mAb (human CD3 [5]) [%]	% residual fluorescence of labeled mAb (human CD3 [6]) [%]	Kd (human CD3 [7]) [nM]	% residual fluorescence of labeled mAb (human CD3 [8]) [%]	% residual fluorescence of labeled mAb (human CD3 [9]) [%]
F332-5F2 (antibody, mouse IgG2b, V domains shown, also called F332-5F2-2; F332-5F2 (6G8, 13A3)) VH: QVQLQQPGAELGKPGTSVKLSCKASGYTFTSYWMHWVKQRPGQGLEWIGNINPNGGDSNYNEKFKSKATLTVDKSSSTAYMQLSTLTSEDSAVYYCTRDISGQYYFDFWGQGTSLTVFS VL: DILMSQSPSSLAVSAGEQVTMSCKSSQSLLNSRTRKNYLAWYQQKPGQSPKLLIFWASTRKSGVPDRFTGSGSGTYFTLTISSVQAEDLAVYYCTQSYNLRTFGGGTKLEIK	98	0.19	0.173	95	292	0.4	49	74	0.37	9	90
F332-7C5 (antibody, mouse IgG2a, V domains shown, also called F332-7C5-2; F332-7C5 (5E12, 10A8)) VH: QVQLQQPGAELGKPGTSVKLSCKASGYTFTSYWMHWVKQRPGQGLEWIGNINPSSGITNYNERFKNKATLTVDKSSTTAYMQLSILTSEDSAVYYCSRDISGQYYFNFWGQGTTLTVSS VL: DIVMSQSPSSLAVSAGEKVTMSCKSSQSLLNSRTRKNYLAWYQQKPGQSPKLLIYWASTRESGVPDRFTGTGSGTDFTLTISSVQAEDLAVYYCKQSYNLRTFGGGTKLEIK	102	0.23	0.062	95	334	0.6	39	64	0.41	7	79
F332-7C9 (antibody, mouse IgG2a, V domains shown, also called F332-7C9-2; F332-7C9 (5C7, 7D10)) VH: QVQLQQSGPELVKPGASVRISCKASGYTFTSHYLHWVKQRPGQGFEWIGWIYPGDGNTRYNEKFKDRATLTADKSSSTAYLHLSSLTSEDSAVYFCARDAGYYFDYWGQGTTLAVSS VL: DIVMSQSPSSLAVSAGEKVTMSCKSSQSLLNSRTRKNYLAWYQQKPGQSLKVLIYWASTRESGVPDRFTGSGSGTDFTLTISSVQAEDLAVYYCKQSYSLRTFGGGTKLEIK	91	0.24	0.045	96	285	0.5	42	68	0.16	9	82
